{
  "source": "patent US11160869B2",
  "about": "(priority 2019, dated 2021)",
  "key": {"[1]": {"system": "STAT3", "experiment": "STAT3 phosphorylation in J774.2 macrophage cells"}, "[2]": {"system": "STAT3", "experiment": "pSTAT3/total STAT3 in colon tissue of non-inflamed mice (ELISA MSD)", "assay_type": "in vivo", "details": "construct 1 mg/kg; rhIL-10 0.9 mg/kg; oral"}, "[3]": {"experiment": "Plasma rhIL-10, IL-10 delivery construct and IL-1Ra immunoassays, DSS study", "assay_type": "in vivo, mice", "details": "0.3 and 3 mg/kg, 4 hours after final dose", "description": "(§1) Plasma cytokines were quantified using the V-plex Proinflammatory Panel 1 Mouse Kit. Plasma IL-1Ra was quantitated by sandwich immunoassay using an antibody pair from the Mouse IL-1Ra/IL-1F3 DuoSet ELISA (R&D Systems #DY480), Streptavidin SULFO-TAG Labeled (MSD #R32AD-1), Multi-Array 96 Plate Pack, SECTOR Plate MSD #L15XA-3 and Read Buffer T (4×) (MSD #R92TC-2). Samples were read on the QuickPlex SQ 120 plate reader (Meso Scale Discovery, Rockville, Md.).\nThe Human IL-10 Base kit (MSD #K151AOA-4) was used to measure rhIL-10 in plasma. […] The MSD Small Spot IL-10 plate was incubated with Diluent 41 (25 μL/well) for 30 minutes at room temperature with shaking before use. Controls and samples were diluted 2-fold with pooled CD-1 mouse plasma (BioIVT, custom order), and the calibration standards were also prepared in mouse plasma. Standards, diluted samples and controls were added (25 μL/well), and the plate was incubated for 2 hours at room temperature with shaking. The plate was washed 3 times with phosphate buffered saline with Tween-20 (PBST), and 25 μL/well 1×SULFO TAG Anti-human IL-10 Antibody (prepared in Diluent 45) was added to the plate. The plate was incubated for 1 hour at room temperature with shaking. Following a wash step, 150 μL/well of 2×MSD Read buffer was added, and the plate was read in the MSD Sector Imager 600 plate reader."}, "[4]": {"system": "DSS-induced colitis", "experiment": "DSS-induced colitis dose-response (0.3, 3, 10, 30 mg/kg): in-life, necropsy, histology", "assay_type": "in vivo, C57BL6/J mice", "method": "DSS-induction of murine colitis was performed by Bolder BioPATH, Inc. (CO, USA). Female C57BL6/J mice (8-10 weeks old) were given 2.5% dextran sodium sulfate (w/v) (Spectrum, Lot #2DC0020) ad libitum in the drinking water from day 0 through day 7. On day 7, DSS was replaced with water, and the animals were maintained until day 10.\nColon histology was scored based on inflammation, gland loss, erosion and hyperplasia (max of 5 each), and these were totaled in the summary score. […] Five additional parameters (edema, neutrophil infiltration, mucosal thickness, lymphoid aggregate and lymphoid aggregate size) were also quantified. […] These histological results thus indicate a mild degree of local drug efficacy."}, "[5]": {"system": "enterocytes and lamina propria cells", "experiment": "Vesicular trafficking during apical to basal transcytosis (Rab7, Rab11, LMAN1, LAMP1), rat jejunum", "assay_type": "in vivo", "method": "Immunofluorescence microscopy images of rat jejunum were obtained following a 50 uL intraluminal injection of an IL-10 delivery construct prepared in PBS at ˜40 uM. For FIGS. 129-133: arrow=apical (luminal) epithelial membrane; dashed line=epithelial cell-basement membrane demarcation; 1-p=lamina propria; G=goblet cell. Cell nuclei stained with DAPI (blue).\nThe timing of LMAN1 redistribution to the basal compartment coincides with the presence of hIL-10 being ultimately detected in non-polarized cells within the lamina propria where it was not associated with LMAN1.\nUltimately, the delivery construct is delivered to lysosome-like structures within a large fraction of cells within the lamina propria, an outcome that would limit its systemic distribution following A-B transcytosis."}, "[6]": {"experiment": "Oral gavage 10 mg/kg in non-inflamed mice: hIL-10 in serum and tissue, serum IL-1Ra", "assay_type": "in vivo"}, "[7]": {"system": "human peripheral blood mononuclear cells (PBMCs)", "experiment": "LPS-induced TNFα, IL-6 and HLA-DR in PBMC monocytes, flow cytometry", "details": "pre-treatment"}, "[8]": {"experiment": "Pan-colonic administration via sigmoidoscopy in NHP: plasma PK and PD", "assay_type": "in vivo, cynomolgus monkeys", "method": "IL-10 delivery construct solution (at concentrations of 0.1, 0.3 and 1.0 mg/mL for the low, mid and high-dose groups respectively) was administered via the rectal route using sigmoidoscopy and a syringe connected to a spray nozzle with a 360° spray pattern. Serial biopsy samples were collected by sigmoidoscopy (pre-dose, 0.25, 0.5, 0.75, 8 and 24-28 hours post dose). Serial plasma samples from 0 min pre-dose to between 24-28 hours post-dose were collected for analysis for the IL-10 delivery construct."}, "[9]": {"system": "polarized gut epithelial cells", "experiment": "In vivo transcytosis across polarized gut epithelial cells, rat jejunum, microscopy", "design": "species or system Wistar rats", "details": "luminal application to rat jejunum", "method": "In vivo transcytosis was tested using male Wistar rats. Male Wistar rats were housed 3-5 per cage with a 12/12 h light/dark cycle and were about 225-275 g (approximately 6-8 weeks old) when placed on study. Experiments were conducted during the light phase using a non-recovery protocol that uses continuous isoflurane anesthesia. A 4-5 cm midline abdominal incision that exposed mid-jejunum regions was conducted. Stock solutions at 3.86×10^−5 M of delivery construct were prepared in phosphate buffered saline (PBS), with 50 μL (per 250 g rat) being administered by intraluminal injection (ILI) using a 29-gauge needle. The injection site mesentery was then marked with a permanent marker. […]\nThe delivery construct (SEQ ID NO: 5) included the cholix carrier with SEQ ID NO: 4 (and further including an N-terminal methionine) coupled to the IL-10 payload having an amino acid set forth in SEQ ID NO: 2 via a spacer having an amino acid set forth in SEQ ID NO: 6. Green fluorescence indicates the presence of IL-10 (via staining with an anti-IL-10 antibody). Blue fluorescence indicates DAPI staining, which labels DNA, and red fluorescence indicates the presence of CK-8 (cytokeratin-8) with which a cholix-derived carrier can co-localize (e.g., in a supranuclear region of an epithelial cell) during transcytosis. […]"}, "[10]": {"system": "plasma cytokines, IL-1Ra", "experiment": "MSD 10-plex proinflammatory panel and plasma IL-1Ra immunoassay, oxazolone dose-response", "design": "species or system mice", "details": "mouse, in vivo", "description": "as §1"}},
  "data": [
    {"molecule": "IL-10 delivery construct: recombinant homodimeric fusion protein: N-terminal methionine, cholix386 domain, polyGlySer spacer, recombinant human IL-10 (protein, homodimer) MVEEALNIFDECRSPCSLTPEPGKPIQSKLSIPSDVVLDEGVLYYSMTINDEQNDIKDEDKGESIITIGEFATVRATRHYVNQDAPFGVIHLDITTENGTKTYSYNRKEGEFAINWLVPIGEDSPASIKISVDELDQQRNIIEVPKLYSIDLDNQTLEQWKTQGNVSFSVTRPEHNIAISWPSVSYKAAQKEGSRHKRWAHWHTGLALCWLVPMDAIYNYITQQNCTLGDNWFGGSYETVAGTPKVITVKQGIEQKPVEQRIHFSKGNAMSALAAHRVCGVPLETLARSRKPRDLTDDLSCAYQAQNIVSLFVATRILFSHLDSVFTLNLDEQEPEVAERLSDLRRINENNPGMVTQVLTVARQIYNDYVTHHPGLTPEQTSAGAQAGGGGSGGGGSGGGGSPGQGTQSENSCTHFPGNLPNMLRDLRDAFSRVKTFFQMKDQLDNLLLKESLLEDFKGYLGCQALSEMIQFYLEEVMPQAENQDPDIKAHVNSLGENLKTLRLRLRRCHRFLPCENKSKAVEQVKNAFNKLQEKGIYKAMSEFDIFINYIEAYMTMKIRN", "values": [
      {"measurement": "amplitude of pSTAT3/total STAT3", "setting": "[1]", "value": "~1.47", "unit": "%"},
      {"measurement": "EC50", "setting": "[1]; read-out: EC50, phosphorylation of STAT3, 20 min stimulation", "value": 0.264, "unit": "nM"},
      {"measurement": "increase in ratio of pSTAT3 to total STAT3", "setting": "[2]", "value": "approximately 50%"},
      {"measurement": "plasma rhIL-10 relative to background of Vehicle treatment", "setting": "[3]", "value": "10-300 fold higher"},
      {"measurement": "edema width, mucosal thickness, hyperplasia in the mid region", "setting": "[4]; 30 mg/kg, relative to Vehicle", "value": "significantly improved"},
      {"measurement": "colon length", "setting": "[4]; 10 and 30 mg/kg, p<0.05 vs vehicle", "value": "Significant improvement in colon length"},
      {"measurement": "DSS-induced weight loss", "setting": "[4]; construct 30 mg/kg, CsA 75 mg/kg, q.d. oral", "value": "significantly reduced DSS-induced weight loss"},
      {"measurement": "summed histology score (inflammation, gland loss, erosion, hyperplasia)", "setting": "[4]; mouse, in vivo", "value": "did not reveal any significant improvements"},
      {"measurement": "co-localization with LMAN1", "setting": "[5]; 1-15 min", "value": "co-localized with redistributing LMAN1"},
      {"measurement": "co-localization with LAMP1 in polarized enterocytes", "setting": "[5]; 1 min post ILI, not increasing over 15 min", "value": "Limited LAMP1/delivery construct co-localizations"},
      {"measurement": "co-localization with LAMP1 in non-polarized cells within the lamina propria", "setting": "[5]; 10 min and 15 min post ILI", "value": "extensive LAMP1/delivery construct co-localizations"},
      {"measurement": "co-localization with Rab7+ vesicles in enterocytes", "setting": "[5]; rat, in vivo", "value": "predominantly in the apical vesicular compartment"},
      {"measurement": "co-localization with Rab11+ vesicles in enterocytes", "setting": "[5]; rat, in vivo", "value": "mostly in the basal vesicular compartment"},
      {"measurement": "time course of completion of A-B transcytosis", "setting": "[5]; rat, in vivo", "value": "10 to 15", "unit": "min"},
      {"measurement": "onset of IL-1Ra induction", "setting": "[6]; 10 mg/kg", "value": "2.5-4 h post oral gavage"},
      {"measurement": "hIL-10 in small intestinal lysates relative to colonic lysates", "setting": "[6]; 10 mg/kg oral gavage", "value": "~10", "unit": "fold higher"},
      {"measurement": "serum IL-1Ra levels", "setting": "[6]; 10 mg/kg oral gavage, 4 h", "value": "significantly increased"},
      {"measurement": "LPS-induced secreted TNFα", "setting": "[7]", "value": "dose-dependent reduction"},
      {"measurement": "LPS-induced surface expression of HLA-DR", "setting": "[7]", "value": "dose-dependent reduction"},
      {"measurement": "plasma IL-10 delivery construct concentration relative to IL-10", "setting": "[8]; 3 mg and 10 mg doses", "value": 10, "unit": "fold lower"},
      {"measurement": "systemic IFN-γ, IL-1β, IL-2, IL-8", "setting": "[8]; 1, 3, 10 mg", "value": "did not lead to an increase"},
      {"measurement": "plasma IL-1Ra", "setting": "[8]; 1, 3 and 10 mg", "value": "induction of the plasma concentration of IL-1Ra was observed at all three doses"},
      {"measurement": "systemic IL-6", "setting": "[8]; 3 and 10 mg groups", "value": "moderately induced"},
      {"measurement": "time of maximal plasma IL-1Ra concentration", "setting": "[8]; cynomolgus monkey, in vivo", "value": "3 to 4", "unit": "h"},
      {"measurement": "time to detection of total IL-10 in plasma", "setting": "[8]; single dose 1, 3 or 10 mg pan-colonic", "value": "≤ 15", "unit": "min"},
      {"measurement": "earliest time of IL-10 payload transport into the lamina propria", "setting": "[9]", "value": "≤ 1", "unit": "min"},
      {"measurement": "plasma cytokines, MSD 10-plex, vs Vehicle", "setting": "[10]", "value": "no significant differences"}
    ]}
  ]
}
